Assay: yeast display, Sf9 membrane polyspecificity reagent, FACS + sequencing; frameworks hold sequencing errors
Summary of the method: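 Synthetic nanobody libraries on Saccharomyces cerevisiae BJ5465 were galactose-induced for 36–48 hours, stained 1 hour at 4 °C with 10% biotinylated, detergent-solubilized Sf9 membrane reagent and enriched on streptavidin microbeads. FACS then separated cells into low and high (top ~1%) gates by anti-HA (expression) and streptavidin (reagent binding) fluorescence. Genes were colony-PCR amplified, MiSeq 2 × 250 sequenced and CDR-length filtered. A clone's polyreactivity label is that of its gate of origin.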

| Sequence | polyreactivity (PSR sort gate) |
| --- | --- |
| QVQLVESGGGLVQAGGSLRLSCAASGSTFDHYAMGWYRPAPGKERELVAAISYSGSTTDYADSVKGRFTISRDNAKNTVYLQMNSLKPVDTAVYYFAASGDVIQSPMDYWGQGTQVTVSS | low polyreactivity |
| QVQLVESGGGLVQAGGSLRLSCAASARIFGWNAMGWYRQAPGKERELVAAISWRGGSTYYADSVKGRFTISRDNAKNTVYLQMNSLKPEDTAVYYCNALYTRYVSQWFGYWGQGTQVTVSS | high polyreactivity |
| QVQLVESGGGLVQAGGSLRLSCAASGRIYDVYAMGWYRQAPRKERELVATITGSGGGTYYADSVKGRFTISRDNAKNTVYLQMNSLKPEDTAVYYCAADYYPTYAYYVSNVGYDYWGQGTQVNVSS | low polyreactivity |
| QVQLVESGGGLVQAGGSLRLSCAASGFTIYYYAMGWYRQAPGKERELVASITSGGSTYYADSVKGRFTISRDNAKNTVYLQMHSLKPEDTAVYDCAKTRLHSKEGDYWGQGTQVTVSS | low polyreactivity |
| QVQLVESGGGLVQAGGSLRLSCAASGFIFSYYAMGWYRQAPGKERELVAAINWSGGSTYYADSVKGRFTISRDNAKNTVFLQMNSLKPEDTAVYYCAAYSSWHPYDYWGQGTQVTVSS | high polyreactivity |
| QVQLVESGGGLVQAGGSLRLSCAASGIIFPFYGMGWYRPAPGKERELVAAITSGDDTYYADSVKGRFTISRDNAKNTVYLQMNSLKPEDTAVYYCNKRVYIAGYWPQLYYIMDYWGQGTQVTVSS | low polyreactivity |
| QVQLVESGGGLVQAGGSLRLSCAASGYTFFLNAMGWYRPAPGNERELVAVITNVGSTYYADSVKGRFTISRDNAKNTVYLQMHSLKPEDTAVYYCAAEYLAYYSGYDYWGQGTQVTVSS | high polyreactivity |
| QVQLVESGRGLVQAGGSLRLSCAASGFTFKSYAKGWYRHATGKVRELVAAISRGTSTKYADSVKGRFTISRDNAKNTVYLQMNSLKPEDSAVYNCAALFPTSDLRLRYYRYDYWGQGTQVTVSS | low polyreactivity |
| QVQLVESGGGLVQAGGSLRLSCAASGLIFADYVMGWYRQAPGKERELVATINQGGGSTYYADSVKGRFTISRDNAKNTVYLQMNSLIPEDTAVYYCAATWALLYAIFESYDYWGQGTQVTVSS | low polyreactivity |
| QVQLVESGGGLVQAGGSLRLSCAASGSIIYSYAMGWYRQAPGKERELVAAISTSAGTTYYADSVKGRFTISRDNAKNTVYLQMNSLKPEDTAVYYCATQVWSHKYWYYYWGQGTQVTVSS | high polyreactivity |
| QVHLVESGGGLVQAGGSLRLTCAASGSIFLYYAMGWYRQAPGKERELVAGIRRGGRTNYADSVKGRFTISRDNAKNTVYLQMNSLKPEDTAVYYCAKGGYWGQGTLVTVSS | high polyreactivity |
| QVHLEESCGGLVQAGGTLRLSCAASGSTFPRYVMGWYRQAPGKERELVAAITSGGSTYYADSVKGRFTISRDNAKNTVYLQMNRLKPEDTAVFYCAAGSYRVVWYDSWGQGTLVTVSS | high polyreactivity |
| QVQLVESGGGLVQAGGSLRLICAASGYIFPYYAIGWYRQAPGKERELVAGITTDGSSTYYADSVKGRFTISRDNAKNTVYLQMPSLKPEDTAVYYCYGYPGYTWGWYDYWGQGTQVTVSS | low polyreactivity |
| QVQLVESGGGLVQAGGSLRLSCAASGSIFFYNTMGWYRQAPGKERELVARISRSGGSTYYADSVKGRFTISRDNAKNTVYLQMNSLKPEDTAVYYCAARSAPWRYRYYKPYYYWGQGTQVTVSS | high polyreactivity |
| QVQLVESGGGLVQAGGSLRLSCAASGRTFDLNAMGWYRQAPGKERELVAGISSSGGRTYYADSVKGRFTISRDNAKNTVYLQMNSLKPEDTAVYYCAKVYPSYVLRKYDYWGQGTQVTVSS | high polyreactivity |
| QVQHVESGGGLVQAGGSLRLSCAASGFTFYIYVMGWYRQAPGKERELVAAITWSGGRTYYADSVKGRFTISRDNAKNTVYLQMNSLKPEDTAVYYCAASYPGLSYHKYEYWGQGTQVTVSS | high polyreactivity |
| QVHLVESGGGLVQAGGSLRLSCAASGFTFYRYAMGWYRQAPGKERELVAAISRRGVSTDYADSVKGRFTISRDNAKNTVYLQMNSLKPEDTAVYYCAASYSRGVGKFGYWGQGSQVTVSS | high polyreactivity |
| QVQLVQTGGGLVQAGGSLRLSCAGSGSTFTSYVMGWYRQAPGKERELVAAITSSGGDTYYADSVKGRFTISRDNAKNTVYLQMNSVKPEDTAVYYCATRSYYRSSYYRNRYPYDYWGQGTQVTVSS | low polyreactivity |
| QVQLVESGRGLVQAGGSLRLSCAASGLIFTANAMGWYRQAPGKERELVASITRDGGTNYADSVKVRFTISRDNAKNTVYLQMNSLKPEDTAVYYCAKESGSVLTLYDYWGQGTQVTVSS | low polyreactivity |
| QVQLVESGGGLLQAGGSLRLSCAASGSTVGINAMGWYRQAPGKERELVASITRRGGSTYYADSVKGRFTISRDNAKNTVYLQMNSLKPEDTAVYYCNKTYRYGTPLYDYWGQGSQVTVSS | high polyreactivity |
| QVQLVESGGGLVQAGGSLRLSCAASGRIFYRYSMGWYRQAPGKERELVAGISSGGRTNYADSVKGRFTISRDNAKNTVYLQMNSLKPEDTAVYYCNKARSRWSDARSSFGYDYWGQGTQVTVSS | low polyreactivity |
| QVQLVESGGGLVQAGGSLRLSCAASGNILARGYAMGWYRQAPGKERELVAAITFNDGSTYYADSVKGRFTISRDNAKNTVYLQMNSLKPEDTAVYYCAADFSYVYYLYDYWGQGTQVTVSS | low polyreactivity |

| Sequence | polyreactivity (PSR sort gate) |
| --- | --- |
| QDQLVESGGGLVQPGGSLRLSCAASGSTFANYAMGWYRQAPGNERQLVAALDHSGGSTYYADSVKGRFTISRDNAKNPVYLQMNSLKPEDTAVYYCNVVNGWLDVSSPDDSLAYLYDYWGQGSQVTVSS | low polyreactivity |
| QVQLVESGGGLVQAGGSLRLSCAASGRTFRLYAMGWYREAPGKERELVAAISYSGGSTYYADSVKGRFTISRDNAKNTVYLPMNSLKPEDTAVYYCAAYSGYYGGDDYWGQGTQVTVSS | high polyreactivity |
| QVQLVESGGGLVQAGGSLRLSCAASGRTFYAYAMGWYRQAPGKERELVAAITKRDGITFYADSVKGRFTISRDNAKNTVYLQMNSLKPEDTAVYYCAATGYVGGIYGHYPRGYWGQGTQVTVSS | high polyreactivity |
| QVQLVESGGGLVQAGGSLRLSCAASGYIFATNAMGWYRQSPGKERELVAAITRSGGRTYYADSVKGRFTISRDNAKNTVYLQMNSLKPEDTAVYYCAAARPTNIYYYWGQGTQVTVSS | high polyreactivity |
| QLQLVESGGGLVQAGGSLRLSCAASGRTFFGYAMGWYSQAPGKERELVATIDGSDGSTFYADSGKGRFTISRDNAKNTVYLQMNSLKPEDTAVYYCAAENFWQTKEYDYWGQGTQVTVSS | low polyreactivity |
| QVQLVESGGGLVQAGGSLRLSCAASGRIFAQYALGWYRQAPGKERELVAGIDRRGGSTYYADSVKGRFTISRDNAKNTVYLQMNSLKPEDTAVYYCNALREDPLFFVYIGGGYWGQGTQVTVSS | low polyreactivity |
| QVQLVESGGGLVQAGGSLRLSCAASGRTFYPYAMGWYRQATGKERELVAAIDYSSATTYYADSVKGRFTISRDNAKNTVYLQMNSLKPEDTAVYYCARVGIGVGWSKLNYWGQGTQVTVSS | low polyreactivity |
| QVQLVESGGGLVQAGGSLRLSCAASGRTFVYYAMGWYRQAPGKEREFVAAISRSGGRTSYADSVKGRFTISRDNAKNTVYLQMNSLKPEDTAVYYCAAEKRTQPSSREYYWGQGTQVTVSS | high polyreactivity |
| QVHLVESGGGLVQAGGSLRLSCAASGSIFSYYGMGWYRQAPGKERELVAAITRSTGSTYYADSVKGRFTISRDYAKNTVYLQMNSLKPEDTAVYYCATEYVVLWEFDYWGQGTQVTVSS | low polyreactivity |
| QVQLVESGGGLVQAGGSLRLSCAASGLIFWGYTMGWYRQAPGKERELVAAISRSGGRTYYADSVKGRFTISRDNAKNTVYLQMNSLKPEDTAVYYCAARYYYWGQGTQVTVSS | high polyreactivity |
| QVQLVESGGGLVQAGGSLRLSCAASGSIFIDYAMGWYRQAPGKERELVAAISWSGGSTYYADSVKGRFTISRDNAKNTVYLQMNSLKPEDTAVYYCAAYSHVSIWYDYDYWGQGTQVTVSS | low polyreactivity |
| QVQLVESGGGLVQAGGRLRLSCAASGYIFKNYAMGWDRQAPGKERELVATINYSGGGTYYADSVKGRFTISRDNAKNTVYLQMNSLKQEDTAVYYCAAREKYISYSYYYWGQGTQVTVSS | high polyreactivity |
| QFQLVESGGGLVQAGGSLRLSCAASGSTFGGNAMGWYRQAPGKERELVAAIDSGGGTNYADSVKGRFTISRDNAKNTVYLQMNSLKPEDSAVYYCNADWAVRSTQNSSSGHDYWGQGTQVTVSS | low polyreactivity |
| QVQLVESGAGLVQAGGSLRISCAASGFTFAYYAMGWYRQAPGKEREFVAAITKGGGSTNYADSVKGRFTISRYNAKNTVYLQMNSLNPEDTAVYYCNADYFVWYIGRVFSRYGYWGQGTQVTVSS | low polyreactivity |
| QVQLVESGGGLVQAGGSLRLSCAASGGIFTQYAMGWSRQAPWKERELVAAITRSGGTYYADSVKGRFTISRDNAKNTVYLQMNSLKPEDTAVYYCAAEWIDAYYDYDYWGQGTQVTVSS | high polyreactivity |
| QVQLVESGGGLVQAGGSLRLSCAASGLTFHYYDMGWYRQAPGKERELVAAISTGGGTYYADSVKGRFTISRDNAKNTVYLQMNSLKPEDTAVYYCAAETQHSYFVFSYYWGQGTQVTVSS | high polyreactivity |
| QVQLVESGGGLVQAGGSLRLSCAASGRTFGFNAMGWYRQAPGKERELVAAISGSGGRTYYADSVKGRFTISRDNAKNTVYLQMNSLKPEDTAVYYCAAGARRGGSGYWGQGTQVTVSS | high polyreactivity |
| QVQLVESGGGLVQAGGSLRLSCAASGLIFTTNAMGWYRQAPGKEREFVAAISPSGGSTYYADSVKGRFTISRDNAKNTVYLQMNSLKPEDTAVYYCAAAGWSARGYNYWGQGTQVTVSS | high polyreactivity |
| QVQLVESGGGLVQAGGSLRLSCAASGSTFGYYGMGWYRQAPGKERELVAAISASGGRTYYADSVKGRFTISRDNAKITVYLQMNSLKPEDTAVYYCAATVYAWRSTYGYWGQGTQVTVSS | high polyreactivity |
| QVQLVESGGGLVQAGGSLRLSCAASGFTFKYTDMGWYRQAPGKERELVAAINWRGGSTYYADSLKGRFTISRDNAKNTVYLQMNSLKPEDTAFYYCNLVYRPSRYDYWGQGTQVTVSS | high polyreactivity |
| QVQLVESGGGLVQAGGSLRLSCAASGSIFHTYAMGWYRQAPGKEWELVAAISTDGSTYYADSVKGRFTISRDNAKNTVYLQRNSLKPEDTAVYYCNVAAKYDSFHRGITWYDYWGQGTQVTVSS | low polyreactivity |

Source: the nanobody polyreactivity screen of Harvey et al. (2022)
